Each substance was assayed against insulin-like growth factor 2 receptor (IGF2R), native full-length, from bovine liver (bovine) (UniProt P08169) (assay: pull-down).
Chain of UniProt P08169 (P08169 45-2499): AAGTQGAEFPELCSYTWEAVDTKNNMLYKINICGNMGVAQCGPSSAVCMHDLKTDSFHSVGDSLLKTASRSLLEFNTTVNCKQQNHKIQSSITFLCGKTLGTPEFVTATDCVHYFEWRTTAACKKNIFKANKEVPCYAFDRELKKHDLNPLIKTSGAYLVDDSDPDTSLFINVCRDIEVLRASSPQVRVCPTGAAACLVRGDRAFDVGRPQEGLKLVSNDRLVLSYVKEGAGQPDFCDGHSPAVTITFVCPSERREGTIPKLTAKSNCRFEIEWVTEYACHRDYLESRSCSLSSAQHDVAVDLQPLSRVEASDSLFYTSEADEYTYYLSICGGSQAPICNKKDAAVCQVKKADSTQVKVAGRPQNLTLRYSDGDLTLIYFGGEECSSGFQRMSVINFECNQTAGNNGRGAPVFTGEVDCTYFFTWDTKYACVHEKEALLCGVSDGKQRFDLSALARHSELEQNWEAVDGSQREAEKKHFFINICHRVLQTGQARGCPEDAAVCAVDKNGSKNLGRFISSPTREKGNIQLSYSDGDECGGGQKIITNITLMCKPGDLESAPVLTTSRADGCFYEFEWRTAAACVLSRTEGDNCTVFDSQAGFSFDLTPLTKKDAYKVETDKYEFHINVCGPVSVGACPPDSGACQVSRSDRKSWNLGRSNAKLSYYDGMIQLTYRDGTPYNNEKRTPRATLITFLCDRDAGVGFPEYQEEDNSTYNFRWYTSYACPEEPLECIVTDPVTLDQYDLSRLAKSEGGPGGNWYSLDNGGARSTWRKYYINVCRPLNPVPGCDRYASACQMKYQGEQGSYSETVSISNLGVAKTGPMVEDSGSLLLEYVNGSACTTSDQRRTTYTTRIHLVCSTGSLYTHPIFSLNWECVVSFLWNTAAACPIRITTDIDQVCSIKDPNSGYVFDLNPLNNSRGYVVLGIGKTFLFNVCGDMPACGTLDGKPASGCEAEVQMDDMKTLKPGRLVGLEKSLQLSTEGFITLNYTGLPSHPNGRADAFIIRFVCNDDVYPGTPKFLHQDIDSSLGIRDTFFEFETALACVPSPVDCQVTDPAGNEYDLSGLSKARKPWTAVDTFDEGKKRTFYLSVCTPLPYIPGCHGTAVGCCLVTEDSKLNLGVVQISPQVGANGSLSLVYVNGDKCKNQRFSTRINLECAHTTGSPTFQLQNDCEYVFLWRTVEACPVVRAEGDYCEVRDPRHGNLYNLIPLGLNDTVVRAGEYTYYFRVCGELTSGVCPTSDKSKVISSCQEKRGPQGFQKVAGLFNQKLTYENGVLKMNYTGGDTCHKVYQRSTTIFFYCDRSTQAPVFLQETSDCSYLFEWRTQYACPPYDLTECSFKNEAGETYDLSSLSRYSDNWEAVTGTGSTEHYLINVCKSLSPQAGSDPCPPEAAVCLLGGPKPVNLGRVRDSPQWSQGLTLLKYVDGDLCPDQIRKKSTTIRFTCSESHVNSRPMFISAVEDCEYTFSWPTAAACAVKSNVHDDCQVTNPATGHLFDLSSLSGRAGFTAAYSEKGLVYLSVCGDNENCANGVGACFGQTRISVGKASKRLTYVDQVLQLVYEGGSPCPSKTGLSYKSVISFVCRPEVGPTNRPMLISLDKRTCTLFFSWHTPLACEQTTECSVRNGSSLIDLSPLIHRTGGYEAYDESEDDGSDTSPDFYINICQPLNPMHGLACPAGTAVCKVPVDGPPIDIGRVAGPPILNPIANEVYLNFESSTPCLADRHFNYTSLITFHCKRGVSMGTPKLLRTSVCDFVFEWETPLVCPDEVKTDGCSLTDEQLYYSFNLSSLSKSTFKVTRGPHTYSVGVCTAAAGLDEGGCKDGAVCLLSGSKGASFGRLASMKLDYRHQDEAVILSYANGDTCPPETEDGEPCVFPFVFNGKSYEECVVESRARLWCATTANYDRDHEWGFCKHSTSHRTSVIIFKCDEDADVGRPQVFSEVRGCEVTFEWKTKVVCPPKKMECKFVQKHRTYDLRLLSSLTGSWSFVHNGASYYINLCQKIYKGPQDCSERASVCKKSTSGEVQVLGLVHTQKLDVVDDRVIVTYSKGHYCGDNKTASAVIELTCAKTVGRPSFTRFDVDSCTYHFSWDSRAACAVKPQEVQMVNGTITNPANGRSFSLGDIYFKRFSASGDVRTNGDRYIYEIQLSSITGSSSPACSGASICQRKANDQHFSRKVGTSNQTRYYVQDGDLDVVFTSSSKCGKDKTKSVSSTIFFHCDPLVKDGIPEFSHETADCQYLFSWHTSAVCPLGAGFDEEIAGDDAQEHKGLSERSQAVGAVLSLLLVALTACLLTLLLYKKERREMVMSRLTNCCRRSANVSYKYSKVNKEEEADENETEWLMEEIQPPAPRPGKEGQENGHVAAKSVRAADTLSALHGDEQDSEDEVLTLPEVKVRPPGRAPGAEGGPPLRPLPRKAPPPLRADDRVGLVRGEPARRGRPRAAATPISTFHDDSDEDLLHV

“Flag-IGF2 F28A V43D double mutant (ligand)” and Flag-IGF2 F48D mutant (ligand) fall in the same range of percent reduction of binding against WT IGF2: 20 to 30% for the first, 20 to 30% for the second.

In the case of Flag-IGF2 L53D mutant (ligand), the percent reduction of binding against WT IGF2 is reported as over 60%.

Reference: PMC7015683
